Substitutions are numbered along the chain they refer to. In names and notes the source's numbering stands.
T1: MGLL (Homo sapiens, UniProt Q99685, L169S/L176S)
T1 construct: His tag followed by a TEV cleavage site (N); made in house; host or cells: Sf9 insect cells (baculovirus)
T1 sequence (Q99685 with tags, fused parts or gaps L169S/L176S): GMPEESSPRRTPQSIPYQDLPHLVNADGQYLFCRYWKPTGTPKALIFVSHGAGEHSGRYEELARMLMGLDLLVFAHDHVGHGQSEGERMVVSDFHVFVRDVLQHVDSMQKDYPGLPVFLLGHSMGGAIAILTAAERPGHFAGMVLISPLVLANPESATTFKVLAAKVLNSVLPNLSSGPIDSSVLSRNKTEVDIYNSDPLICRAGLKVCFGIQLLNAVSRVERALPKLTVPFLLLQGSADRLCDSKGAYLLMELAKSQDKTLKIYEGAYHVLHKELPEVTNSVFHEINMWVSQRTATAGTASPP

B1: wt-MGLL.1-303: wild-type human MGLL isoform 2, amino acids 1-303, with N-terminal His tag and TEV site (SEQ ID NO: 3) (protein)
chain: MVDHHHHHHENLYFQGMPEESSPRRTPQSIPYQDLPHLVNADGQYLFCRYWKPTGTPKALIFVSHGAGEHSGRYEELARMLMGLDLLVFAHDHVGHGQSEGERMVVSDFHVFVRDVLQHVDSMQKDYPGLPVFLLGHSMGGAIAILTAAERPGHFAGMVLISPLVLANPESATTFKVLAAKVLNLVLPNLSLGPIDSSVLSRNKTEVDIYNSDPLICRAGLKVCFGIQLLNAVSRVERALPKLTVPFLLLQGSADRLCDSKGAYLLMELAKSQDKTLKIYEGAYHVLHKELPEVTNSVFHEINMWVSQRTATAGTASPP
modifications: N-terminal His tag and TEV site
B2: mut-MGLL. 1-303, L169S, L176S, K165A: engineered human MGLL 1-303 with L169S, L176S and surface mutation K165A (protein)
chain: B1 chain with K181A, L185S, L192S
B3: mut-MGLL 1-303, L169S, L176S, K226A: engineered human MGLL 1-303 with L169S, L176S and surface mutation K226A (protein)
chain: B1 chain with L185S, L192S, K242A
B4: mut-MGLL. 1-303, L169S, L176S, K160A: engineered human MGLL 1-303 with L169S, L176S and surface mutation K160A (protein)
chain: B1 chain with K176A, L185S, L192S
B5: mut-MGLL 1-303, L169S, L176S, K36A, K226A: engineered human MGLL 1-303 with L169S, L176S and surface mutations K36A, K226A (protein)
chain: B1 chain with K52A, L185S, L192S, K242A
B6: mut-MGLL. 1-303, L169S, L176S: engineered human MGLL 1-303 with cap-domain mutations L169S, L176S; SEQ ID NO: 5 after TEV cleavage (protein)
chain: T1 sequence (Q99685 with tags, fused parts or gaps L169S/L176S)

How the values were obtained:
[1] = Thermofluor thermal stability assay (Tm of MGLL protein); format: physicochemical; conditions: for Tm (midpoint of the melting transition): 0.05 mg/ml protein, 50 mM Pipes pH 7, 200 mM NaCl, 100 μM 1,8-ANS, 0.001% Tween
Excerpt: (§1) Thermofluor® assays detect small changes in the intrinsic melting temperature of proteins based on binding of ligands. Compounds that interact preferentially with the native form of the protein will increase the Tm, the temperature at which half of the protein is unfolded (Pantoliano et al. 2001). The technique monitors changes in the fluorescent intensity of dyes such as 1-anilinonaphthalene-8-sulfonic acid (1,8-ANS). The fluorescent dyes are quenched in aqueous environments but increase in fluorescence on binding to the hydrophobic core of denatured proteins.
as §1, with “The Thermofluor®” for “Thermofluor®”, “assay is a powerful tool to screen for small molecule inhibitors interacting with a protein's active site or allosteric site. The assay detects” for “assays detect”
Thermofluor® assays were conducted to characterize wt-MGLL (hMGLL 1-303) (SEQ ID NO: 3) and mut-MGLL (hMGLL 1-303 L169S, L176S) and evaluate if the MGLL mutants could be used for high-throughput screening using Thermofluor®. Three microliters of protein at a concentration of 0.05 mg/ml in 50 mM Pipes pH 7, 200 mM NaCl, 100 μM 1,8-ANS, and 0.001% Tween was added to pre-dispensed compound plates. Wells were overlaid with silicone oil (1 μL, Fluka, type DC 200) to prevent evaporation. Final compound concentrations varied from 150 to 0.15 μM. Assay plates were heated at a rate of 1° C./min for all experiments over a temperature range sufficient to measure protein unfolding. Fluorescence was measured by continuous illumination with UV light (Hamamatsu LC6) supplied via fiber optic and filtered through a custom band-pass filter (380-400 nm; >60D cutoff). Fluorescence emission was detected by measuring light intensity using a CCD camera (Sensys, Roper Scientific) filtered to detect emission at 500±25 nm, resulting in simultaneous and independent readings of all 384 wells. One or more images were collected at each temperature, and the sum of the pixel intensity in a given area of the assay plate was recorded vs temperature, and fit to standard equations to yield the Tm.

MGLL [2] = experiment: Kinetic analysis: hydrolysis of 4-methylcoumarin butyrate (4MC-B) by MGLL constructs; format: biochemical, human; conditions: substrate 4MC-B; 4-5 nM MGLL, 20 mM Pipes pH 7, 150 mM NaCl, 37° C.; average of 2 or 4 separate assays
Procedure: The Michaelis-Menten parameters for the hydrolysis of 4-methylcoumarin butyrate (4MC-B) and coumarin arachidonate (C-A) substrate were determined using 4-5 nM of MGLL in 20 mM Pipes pH 7 and 150 mM NaCl at 37° C. […] The hyperbolic rates versus substrate concentration curves for the hydrolysis of 4MC-B were fit to the Michaelis-Menten equation using Excel.

MGLL [3] = target: T1, MGLL; experiment: Kinetic analysis: hydrolysis of coumarin arachidonate (C-A) by MGLL constructs; format: biochemical; conditions: substrate C-A
Excerpt: A small fluorescent substrate, 4-methyl coumarin butyrate (4MC-B) was used to compare the activity of the engineered mutants to the activity of wt-MGLL (hMGLL 1-303) (SEQ ID NO: 3). The catalytic efficiency (kcat/KM) for the hydrolysis of the 4MC-B was similar for wt-MGLL (hMGLL 1-303) (SEQ ID NO: 3) and all MGLL mutants tested (Table 2). A larger more aliphatic fluorescent substrate, Coumarin Arachidonate (C-A), structurally more closely related to the MGLL natural substrate, 2-AG, was used to compare the activity of wt-MGLL (hMGLL 1-303) (SEQ ID NO: 3) to TEV cleaved mut-MGLL (hMGLL 1-303 L169S, L176S) (SEQ ID NO: 5).
The Michaelis-Menten parameters for the hydrolysis of 4-methylcoumarin butyrate (4MC-B) and coumarin arachidonate (C-A) substrate were determined using 4-5 nM of MGLL in 20 mM Pipes pH 7 and 150 mM NaCl at 37° C. The change in fluorescence due to substrate hydrolysis was monitored using excitation/emission wavelengths of 335/440 in a Safire II instrument from Tecan. The hyperbolic rates versus substrate concentration curves for the hydrolysis of 4MC-B were fit to the Michaelis-Menten equation using Excel.
The apparent kcat/KM ratio for the hydrolysis of C-A was determined at [S]<<KM. […] The kcat/KM values reported are the average from independent values determined from five substrate concentrations ranging from 700 to 40 nM.

[4] = Size exclusion chromatography of protein purified in the absence of detergent (aggregation / monomer); format: physicochemical
Procedure: A pilot purification of wt-MGLL (hMGLL 1-303) (SEQ ID NO: 3), performed in the complete absence of detergent, generated no protein (data not shown). A second purification of wt-MGLL (hMGLL 1-303) (SEQ ID NO: 3) was done with detergent in the lysis buffer only. Frozen cell pellets for wt-MGLL (hMGLL 1-303) (SEQ ID NO: 3) were thawed, resuspended, and lysed in Bugbuster® lysis buffer for 1 hour at 4° C. Bugbuster® lysis buffer is a proprietary lysis buffer from […] that contains detergent. The lysate was clarified by centrifugation at 40,000×g for 1 hr. No detergent was added at this point or during the rest of the purification. From this point forward, the purification protocol and buffers were the same as described below for mut-MGLL. An average of 2.2 mg of wt-MGLL (hMGLL 1-303) (SEQ ID NO: 3) per liter of cell culture was obtained.
Mutant MGLL (mut-MGLL) constructs were purified in the absence of detergent. […] Fractions were analysed by SDS-PAGE. […] Purification yields were determined by Bradford assay using the protein assay kit from BioRad according to manufacturer's instruction with BSA as a standard (Bradford 1976).

Molecule	quality of the Thermofluor melting transition [1]	Tm (midpoint of the melting transition) [1] [°C]	Km (MGLL [2]) [µM]	other results
B1	very poor transition	58		
B2			137	
B3			110	
B4			90	
B5			123	
B6	strong transition	56.7		catalytic efficiency for hydrolysis of C-A compared with wt-MGLL (MGLL [3]): equivalent; monomer [4]: 90%

Reference: patent US8080400B2, “Crystal structure of monoacylglycerol lipase (MGLL)” (Janssen Pharmaceutica N.V., priority 2009, dated 2011)
